{
  "source": "paper PMC3035457",
  "about": "(Nucleic Acids Research, 2010)",
  "binders": {"B1": {"name": "recombinant DUSP23-FLAG (DUSP23 with a C-terminal FLAG tag) (enzyme)", "chain": "MGVQPPNFSWVLPGRLAGLALPRLPAHYQFLLDLGVRHLVSLTERGPPHSDSCPGLTLHRLRIPDFCPPAPDQIDRFVQIVDEANARGEAVGVHCALGFGRTGTMLACYLVKERGLAAGDAIAEIRRLRPGSIETYEQEKAVFQFYQRTK"}},
  "molecular_target": "T1, MBP-GCM1(167–349) (human, UniProt Q9NP62 167-349)",
  "T1 sequence": "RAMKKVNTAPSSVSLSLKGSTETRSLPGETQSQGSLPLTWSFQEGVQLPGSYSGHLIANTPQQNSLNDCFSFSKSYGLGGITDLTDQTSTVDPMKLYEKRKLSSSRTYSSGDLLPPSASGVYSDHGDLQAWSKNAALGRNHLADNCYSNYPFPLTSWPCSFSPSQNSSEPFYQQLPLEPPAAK",
  "assay": "pull-down",
  "data": [
    {"binder": "B1", "values": [
      {"measurement": "binding result", "value": "binds"}
    ]}
  ]
}
